Reference: the Human Domainome abundance scans (Beltran et al. 2025)

B1: Receptor-interacting serine/threonine-protein kinase 2, residues 438 to 518; numbered along this chain, O43353 (parent)
chain: QWIQSKREDIVNQMTEACLNQSLDALLSRDLIMKEDYELVSTKPTRTSKVRQLLDTTDIQGEEFAKVIVQKLKDNKQMGLQ

Variants of: B1
Assay: abundance fitness (aPCA) (normalised: wild type 0, dead -1); higher = more abundant; growth selection in yeast, the domain comes from the species named
Conditions: Homo sapiens

Abundance fitness, by site and new letter:
K73: G -0.132; Q -0.003; N -0.191; H -0.319; F -0.609; S 0.001
Q70: A -0.072; G -0.144; W -0.645; S -0.174; D -0.206; I -0.614; H -0.351; L -0.687; M -0.436; P -0.567; N -0.81; V -0.714; E 0.08; Y -0.776
L72: A -0.865; H -0.741; P -0.54; R -0.633; V -0.394; E -0.283; N -0.043; Q -0.451; G -0.528; Y -0.695; T -0.448; S -0.587; M 0.121; C -0.713; F -0.072
Q77: H -0.137
G79: R -0.282; V -0.167; S -0.021
Q81: H -0.419
V69: K -0.35; E -0.178; Y -0.23; S -0.57; M 0.003; N -0.94; A -0.384; H -0.508; C -0.159; W -0.4; Q -0.306; G -0.553; L -0.286; I -0.051; F -0.057; D -0.27
M78: I -0.372
V67: I 0.164; T -0.305; M -0.674; R -0.854; Q -0.568; N -0.651; L -0.51; H -0.396; W -0.95; P -0.562
D74: G -0.336; S -0.323; W -0.488; P -0.512; M -0.399; Q -0.248; T -0.285; F -0.486; N -0.345; A -0.076; C -0.246; R -0.49; E -0.085; Y -0.173; I -0.261; K -0.644; H 0.046
